We go through 15 substances from patent US20090142377A1.

Assay [1] concerns the target dH5-II (cdH5-0 heat-cycled at pH 2, back to pH 7) (influenza A virus H5N1 strain A/Vietnam/1203/04) (UniProt Q8QPL1). Nature of the assay: ELISA, coated H5 form; scaled. A general note: In an ELISA, binding on a coated surface is turned into a signal by an enzyme label.
Assay [2] deals with dH5-I (cdH5-0 heat-cycled at pH 7) (influenza A virus H5N1 strain A/Vietnam/1203/04) (UniProt Q8QPL1). Nature of the assay: ELISA, coated H5 form; scaled.
Assay [3] concerns the target fdH5-0 (ultrafiltrated dH5-0: flow-through of cdH5-0 through a 1,000 kDa cut-off filter) (influenza A virus H5N1 strain A/Vietnam/1203/04). Nature of the assay: ELISA, coated H5 form; scaled.
Assay [4] has as its target cdH5-0 (supernatant of dH5-0 after 10 minutes centrifugation at 16,000-18,000*g) (influenza A virus H5N1 strain A/Vietnam/1203/04). Nature of the assay: ELISA, coated H5 form; scaled.
Assay [5] addresses dH5-III (cdH5-0 incubated about 16 h at 47.5 C) (influenza A virus H5N1 strain A/Vietnam/1203/04) (UniProt Q8QPL1). As to the kind of experiment: ELISA, coated H5 form; scaled.
Assay [6] addresses non-treated H5 (nH5) of H5N1 strain A/Vietnam/1203/04 (Protein Sciences) (influenza A virus H5N1 strain A/Vietnam/1203/04). Nature of the assay: ELISA, coated nH5, antibody 1:2000.
In assay [7] the target is cross-beta nOVA: ovalbumin (chicken egg-white albumin) dissolved at 1 mg/ml in PBS (chicken) (UniProt P01012). As to the kind of experiment: ELISA, immobilized OVA form.
Assay [8] has as its target dOVA-3: ovalbumin 1 mg/ml in PBS, about 16 h at 75 C (chicken) (UniProt P01012). As to the kind of experiment: ELISA, immobilized OVA form.
Assay [9] has as its target dOVA-1: ovalbumin 5.2 mg/ml in HBS, acidified with HCl, 40 minutes at 37 C, neutralized (chicken) (UniProt P01012). As to the kind of experiment: ELISA, immobilized OVA form.
The target in assay [10] is dOVA-2: ovalbumin 1 mg/ml in PBS, five heat cycles 30 to 85 C (chicken) (UniProt P01012). As to the kind of experiment: ELISA, immobilized OVA form.
Assay [11] has as its target dH5-I (cdH5-0 heat-cycled at pH 7) (influenza A virus H5N1 strain A/Vietnam/1203/04) (UniProt Q8QPL1). As to the kind of experiment: ELISA, immobilized H5; normalized to cdH5-0.
Assay [12] concerns the target fdH5-0 (ultrafiltrated dH5-0: flow-through of cdH5-0 through a 1,000 kDa cut-off filter) (influenza A virus H5N1 strain A/Vietnam/1203/04). Nature of the assay: ELISA, immobilized H5; normalized to cdH5-0.
Assay [13] has as its target cdH5-0 (supernatant of dH5-0 after 10 minutes centrifugation at 16,000-18,000*g) (influenza A virus H5N1 strain A/Vietnam/1203/04). Nature of the assay: ELISA, immobilized H5; normalized to cdH5-0.
The target of assay [14] is cross-beta nOVA: ovalbumin (chicken egg-white albumin) dissolved at 1 mg/ml in PBS (chicken) (UniProt P01012). As to the kind of experiment: ELISA, immobilized OVA; normalized to nOVA.
The target in assay [15] is fdH5-0 (ultrafiltrated dH5-0: flow-through of cdH5-0 through a 1,000 kDa cut-off filter) (influenza A virus H5N1 strain A/Vietnam/1203/04). As to the kind of experiment: ELISA, coated H5 form, tPA series with excess e-amino caproic acid.
In assay [16] the target is cdH5-0 (supernatant of dH5-0 after 10 minutes centrifugation at 16,000-18,000*g) (influenza A virus H5N1 strain A/Vietnam/1203/04). The description is as above.

As for “HyTest IgG2a clone 8D2, mouse monoclonal anti-H5 antibody”, the relative affinity kD in [1] came to 36 a.u; in [2], 34 a.u; in assay [3] it was 125 a.u; in assay [4], 100 a.u; in [5], 72 a.u.
The like results for “HyTest IgG2a clone 15A6, mouse monoclonal anti-H5 antibody” were, in that order, 31 a.u, 105 a.u, 204 a.u, 100 a.u and 76 a.u.
In the same order, the values of “HyTest clone 17C8, mouse monoclonal anti-H5 antibody” are 34 a.u, 51 a.u, 128 a.u, 100 a.u and 68 a.u.
On to “Rockland anti-H5 A/VN/1203/04 mouse monoclonal antibody, catalogue number 200-301-975”, for which the relative affinity kD came out at 79 a.u in assay [1]; 47 a.u in assay [2]; 103 a.u in assay [3]; 100 a.u in assay [4]; 78 a.u in [5]. The same substance yielded an ELISA signal in assay [6] of 1.5.
Take “Rockland anti-H5 A/VN/1203/04 mouse monoclonal antibody, catalogue number 200-301-976”: the relative affinity kD came out at 132 a.u in assay [1]; 0 a.u in assay [2]; 105 a.u in assay [3]; 100 a.u in assay [4]; 127 a.u in assay [5].
In the same order, the values of “Rockland anti-H5 A/VN/1203/04 mouse monoclonal antibody, catalogue number 200-301-977” are 0 a.u, 0 a.u, 93 a.u, 100 a.u and 35 a.u.
The like results for “Rockland anti-H5 A/VN/1203/04 mouse monoclonal antibody, catalogue number 200-301-978” were, in that order, 31 a.u, 115 a.u, 107 a.u, 100 a.u and 112 a.u.
Consider “Rockland anti-H5 A/VN/1203/04 mouse monoclonal antibody, catalogue number 200-301-979”, for which the relative affinity kD was 83 a.u in assay [1]; 125 a.u in assay [2]; 97 a.u in assay [3]; 100 a.u in assay [4]; 126 a.u in assay [5].
Regarding Sigma C6534 anti-OVA antibody, the relative affinity kD was 84.9 a.u in assay [7], 287 a.u in assay [8], 44 a.u in [9] and 221 a.u in assay [10].
Regarding “fourth and fifth finger domain of fibronectin (Fn F4-5), with C-terminal FLAG-tag (from UniProt P02751 183-275)”, the Normalized affinity, kD (%) in assay [11] was 0%; in assay [12] it was 69%; in [13] it was 100%; in assay [14], 100%.
The substance “monoclonal anti-OVA IgG (A6075, Sigma) (antibody)” showed a relative affinity kD in assay [9] of 20.8 a.u.
For “mouse HYB 099-01 (IgG1) anti-OVA monoclonal antibody”, the relative affinity kD worked out at 98.5 a.u in assay [7], 80.9 a.u in assay [8], 115 a.u in assay [9] and 129 a.u in [10].
In the same order, the values of “mouse HYB 099-02 (IgG1) anti-OVA monoclonal antibody” are 103 a.u, 154 a.u, 154 a.u and 118 a.u.
The like results for “mouse HYB 099-09 (IgG1) anti-OVA monoclonal antibody” were, in that order, 71.2 a.u, 164 a.u, 127 a.u and 85.1 a.u.
With “tissue type plasminogen activator (tPA; Actilyse, Boehringer-Ingelheim) (from UniProt P00750 36-562) (enzyme)”, the Bmax in assay [15] is 0.37; in [16], 0.36.
